Earlier results on one substance are cited in article PMC9161494.

The data set addresses EGFR (Homo sapiens) (UniProt P00533).

A word on the Kd: it is the constant that tells how readily two partners part at equilibrium. With PEPDG278D (from UniProt P12955), the Kd was 17.7 nM.
